The values below come from US20240116985A1 (published 2024).

Starred links: 1 amine or outer side, 2 acyl side, 3 side chain; linkers in the order of their positions; H or OH if unused. Positions of bridges follow the written chain, without caps; N, C: chain ends. Non-standard residues stand in square brackets, D forms with d. Primed or numbered codes have the meaning given here. PyrS2″ = (S)-3-amino-1-((pent-4-en-1-yloxy)carbonyl)pyrrolidine-3-carboxylic acid (stapling residue), C=CCCCOC(=O)N1CC[C@@](N[*:1])(C(=O)[*:2])C1; SeN″ = (S)-5-(((allyloxy)carbonyl)(methyl)amino)-2-amino-2-methylpentanoic acid (stapling residue), C=CCOC(=O)N(C)CCC[C@](C)(N[*:1])C(=O)[*:2]; B5(4) = 2,2-bis(4-pentenyl)glycine = 2-amino-2-(pent-4-en-1-yl)hept-6-enoic acid (stitching residue), C=CCCCC(CCCC=C)(N[*:1])C(=O)[*:2]; B5(20) = 2-amino-2-(pent-4-en-1-yl)hept-6-enoic acid = bis(4-pentenyl)glycine, stitching residue, C=CCCCC(CCCC=C)(N[*:1])C(=O)[*:2]; B5(21) = 2-amino-2-(pent-4-en-1-yl)hept-6-enoic acid, bis(4-pentenyl)glycine (stitching residue), C=CCCCC(CCCC=C)(N[*:1])C(=O)[*:2]; PyrS2 = (S)-3-amino-1-((pent-4-en-1-yloxy)carbonyl)pyrrolidine-3-carboxylic acid, C=CCCCOC(=O)N1CC[C@@](N[*:1])(C(=O)[*:2])C1; SeN = (S)-5-(((allyloxy)carbonyl)(methyl)amino)-2-amino-2-methylpentanoic acid, C=CCOC(=O)N(C)CCC[C@](C)(N[*:1])C(=O)[*:2]; PyrS = (S)-1-((allyloxy)carbonyl)-3-aminopyrrolidine-3-carboxylic acid, C=CCOC(=O)N1CC[C@@](N[*:1])(C(=O)[*:2])C1; Phe(2-CONH2) = NC(=O)c1ccccc1C[C@H](N)C(=O)O; Phe(2-Cl) = N[C@@H](Cc1ccccc1Cl)C(=O)O; Phe(4-F) = N[C@@H](Cc1ccc(F)cc1)C(=O)O; Bta = N[C@@H](Cc1csc2ccccc12)C(=O)O; αAllylPro = C=CC[C@@]1(C(=O)O)CCCN1; tBuAla = CC(C)(C)C[C@H](N)C(=O)O; R8 = C=CCCCCCC[C@@](C)(N)C(=O)O; 3Thi = N[C@@H](Cc1ccsc1)C(=O)O; Cha = N[C@@H](CC1CCCCC1)C(=O)O; S8 = C=CCCCCCC[C@](C)(N)C(=O)O; Thr(ol) = C[C@@H](O)[C@H](N)CO

The labels stand for the following.
B1: I-78 (peptide)
peptide: Ac-FDA[R8]DDAA[Phe(4-F)]V[PyrS]FWQ-NH2
modifications: staple 4-11
notes: Stapled peptide; also called Ac-Phe-Asp-Ala-R8-Asp-Asp-Ala-Ala-4FF-Val-PyrS-Phe-Trp-Gln-NH2
B2: I-52 (peptide)
peptide: Ac-[αAllylPro]DA[B5(20)]DDAAFV[S8]FWQ-NH2
modifications: staple 1-4, 4-11
notes: Stapled (stitched) peptide; also called Ac-PL3-Asp-Ala-B5-Asp-Asp-Ala-Ala-Phe-Val-S8-Phe-Trp-Gln-NH2
B3: I-53 (peptide)
peptide: Ac-[αAllylPro]DA[B5(21)]DDAAFV[SeN″]FWQ-NH2
modifications: staple 1-4, 4-11; also: earlier-eluting HPLC isomer, E/Z not given here
notes: Stapled (stitched) peptide; also called Ac-PL3-Asp-Ala-B5-Asp-Asp-Ala-Ala-Phe-Val-SeN-Phe-Trp-Gln-NH2
B4: I-54 (peptide)
peptide: Ac-[αAllylPro]DA[B5(21)]DDAAFV[SeN]FWQ-NH2
modifications: staple 1-4, 4-11
notes: as for B3

The target of one assay is T1, full-length beta-Catenin (Uniprot ID P35222) (Homo sapiens (Human), UniProt P35222 1-781).
T1 construct: also called bCat; B-Catenin
T1 sequence: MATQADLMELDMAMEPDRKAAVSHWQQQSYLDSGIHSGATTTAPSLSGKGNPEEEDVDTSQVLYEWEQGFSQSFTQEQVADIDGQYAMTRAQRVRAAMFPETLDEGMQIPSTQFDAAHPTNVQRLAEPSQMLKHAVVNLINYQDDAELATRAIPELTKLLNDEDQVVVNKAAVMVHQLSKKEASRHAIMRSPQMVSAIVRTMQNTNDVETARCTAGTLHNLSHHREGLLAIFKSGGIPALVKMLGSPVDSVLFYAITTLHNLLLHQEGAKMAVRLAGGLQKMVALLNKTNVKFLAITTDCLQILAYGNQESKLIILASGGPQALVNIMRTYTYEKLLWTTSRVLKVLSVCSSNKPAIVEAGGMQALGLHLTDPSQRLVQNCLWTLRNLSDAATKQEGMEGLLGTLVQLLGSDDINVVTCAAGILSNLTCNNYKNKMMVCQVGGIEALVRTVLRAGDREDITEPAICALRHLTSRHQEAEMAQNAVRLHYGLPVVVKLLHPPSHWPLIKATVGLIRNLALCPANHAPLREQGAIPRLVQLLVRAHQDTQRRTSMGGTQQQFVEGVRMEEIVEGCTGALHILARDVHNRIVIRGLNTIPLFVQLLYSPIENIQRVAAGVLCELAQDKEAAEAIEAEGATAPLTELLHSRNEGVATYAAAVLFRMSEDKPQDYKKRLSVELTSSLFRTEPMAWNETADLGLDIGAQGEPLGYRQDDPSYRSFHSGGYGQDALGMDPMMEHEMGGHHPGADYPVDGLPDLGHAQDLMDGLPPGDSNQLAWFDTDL
The assay can be described thus: FP competition: full-length beta-catenin 10 nM + 5FAM-TCF4(10-53) 10 nM. On the procedure: (§1) The plate was incubated protected from light for 60 minutes at 20° C. prior to read. Reads were performed on a CLARIOstar plate reader (BMG Labtech) in duplicate, and data were fitted to a 1:1 binding model with hill slope using an in-house script. All provided concentrations are final concentrations.
Ac-[αAllylPro]DI[B5(20)]DEAAFN[S8][Phe(2-CONH2)][Bta]H-NH2 (staple 1-4, 4-11, Stapled peptide composition) [I-514]: the IC50 came to 0.03 µM.

A further assay has as its target T2, B-cat-Halo (NanoBRET construct expressed in HEK293 cells) (UniProt P35222 1-781).
T2 sequence (looked up): T1 sequence
Briefly: cell-based or functional assay.
On to Ac-[αAllylPro]DI[B5(20)]DEAAFN[S8][Phe(2-CONH2)][Bta]H-NH2 (staple 1-4, 4-11, Stapled peptide composition) [I-514], for which the “NanoBRET Abs IC50” value is greater than 20 µM.

The next assay has as its target T3, B-cat-Halo (UniProt P35222 1-781).
T3 sequence (looked up): T1 sequence
The assay can be described thus: cell-based or functional assay.
In the case of Ac-[αAllylPro]D[tBuAla][B5(4)]DTAAFT[PyrS2″][Phe(2-Cl)][Bta][Thr(ol)] (staple 1-4, 4-11) [I-1309], the “NanoBRET Abs IC50 (uM); B-cat-Halo / TCF4-Luc in HEK293 cells” value worked out at 28.6 µM. As for Ac-[αAllylPro]D[tBuAla][B5(4)]DDAAFT[S8][Phe(2-Cl)][Bta][Thr(ol)] (staple 1-4, 4-11) [I-1308], the “NanoBRET Abs IC50 (uM); B-cat-Halo / TCF4-Luc in HEK293 cells” value turned out to be 11.9 µM. Same read-out and setting: to Ac-[αAllylPro]D[tBuAla][B5(4)]DDAAFF[PyrS2][3Thi][Bta][Thr(ol)] (staple 1-4, 4-11) [I-1303] belongs 9.1 µM; to Ac-[αAllylPro]D[Cha][B5(4)]DTAAFT[PyrS2″][Phe(2-Cl)][Bta][Thr(ol)] (staple 1-4, 4-11) [I-1310], greater than 20 µM. In the case of Ac-[αAllylPro]D[tBuAla][B5(4)]DDAAFF[PyrS2″][Phe(2-Cl)][Bta][Thr(ol)] (staple 1-4, 4-11) [I-1311], the “NanoBRET Abs IC50 (uM); B-cat-Halo / TCF4-Luc in HEK293 cells” value came to 20.6 µM.

As to Ac-[αAllylPro]D[Cha][B5(4)]DDAAFL[PyrS2″][Phe(2-Cl)][Bta][Thr(ol)] (staple 1-4, 4-11) [I-1307], the “NanoBRET Abs IC50 (uM); B-cat-Halo / TCF4-Luc in HEK293 cells” value worked out at 38.8 µM. Same read-out and setting: to Ac-[αAllylPro]N[tBuAla][B5(4)]DDAAFL[PyrS2][3Thi][Bta][Thr(ol)] (staple 1-4, 4-11) [I-1304] belongs 33.6 µM.

Another assay addresses T4, full-length beta-Catenin (Uniprot ID P35222) (Homo sapiens (Human), UniProt P35222 2-781).
T4 construct: Used full-length in both the FP and the AlphaScreen assay; also called B-Catenin; bCat
T4 sequence: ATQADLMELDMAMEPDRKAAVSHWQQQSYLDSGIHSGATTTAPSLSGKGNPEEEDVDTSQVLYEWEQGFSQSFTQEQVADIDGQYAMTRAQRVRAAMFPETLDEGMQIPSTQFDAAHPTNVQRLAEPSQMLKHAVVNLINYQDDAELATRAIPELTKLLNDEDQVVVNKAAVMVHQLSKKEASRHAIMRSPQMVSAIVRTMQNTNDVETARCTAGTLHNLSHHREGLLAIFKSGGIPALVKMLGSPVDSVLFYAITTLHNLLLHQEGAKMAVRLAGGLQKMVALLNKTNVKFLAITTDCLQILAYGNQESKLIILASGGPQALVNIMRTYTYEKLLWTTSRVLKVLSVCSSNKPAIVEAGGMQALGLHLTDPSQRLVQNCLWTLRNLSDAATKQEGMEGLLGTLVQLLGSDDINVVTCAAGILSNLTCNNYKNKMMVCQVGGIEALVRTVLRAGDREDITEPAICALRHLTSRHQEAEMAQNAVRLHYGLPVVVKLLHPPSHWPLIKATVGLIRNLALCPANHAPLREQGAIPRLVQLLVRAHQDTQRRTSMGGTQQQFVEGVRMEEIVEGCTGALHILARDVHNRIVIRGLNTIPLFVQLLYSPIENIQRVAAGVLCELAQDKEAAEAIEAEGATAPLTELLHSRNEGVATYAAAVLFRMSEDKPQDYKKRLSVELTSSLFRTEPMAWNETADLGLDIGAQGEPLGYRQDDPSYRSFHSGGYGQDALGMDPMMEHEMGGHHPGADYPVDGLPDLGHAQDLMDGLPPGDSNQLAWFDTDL
The assay can be described thus: AlphaScreen competition; full-length beta-catenin, biotin-TCF4(10-53) probe. On the procedure:
Equal volume of the titrated peptide was added to the plate and incubated for 15 minutes at 20° C. Then 4 uL of donor and 4 uL acceptor beads at 10 ug/mL were added to the plate, for a 16 uL reaction pool and protected from light for 60 minutes at 20° C. prior to read. Reads were performed on a CLARIOstar plate reader (BMG Labtech) in duplicate, and data were fitted to a 1:1 binding model with hill slope using an in-house script. All provided concentrations are final concentrations.
On the technique in general: Alpha assays give light when donor and acceptor beads are brought close together.
Regarding B1, it took 7.48 µM to reach a half-maximal effect (EC50). For the molecule B2, a half-maximal response (EC50) required 0.158 µM. As to B3, the EC50 was 1.14 µM.

On to B4, for which it took 0.482 µM to reach a half-maximal effect (EC50).

In another assay the target is T4, full-length beta-Catenin (Uniprot ID …). The assay can be described thus: fluorescence polarization competition; full-length beta-catenin, 5FAM-TCF4(10-53) probe. On the procedure: as §1
For orientation: Polarisation of emitted light reports the rotation of a fluorescent probe.
Regarding B1, the EC50 worked out at 5 µM.

Consider B2, for which the EC50 turned out to be 3.2 µM.

Molecule B3 had an EC50 of 5 µM.

Take B4: a half-maximal response (EC50) required 3.19 µM.

Usually IC50 stands for the point on the concentration scale where inhibition reaches its midpoint. In general, EC50 refers to the concentration at which the effect is half-maximal. A low value points to an effect from little substance.
